Test results from patent US20110230374A1 (UNIVERSITY OF MARYLAND BALTIMORE, published 2011).
Residue numbers refer to the chain shown, from its start.

B1: VLRB.CTMut.5 (other)
chain: ACPSQCSCDQTTVYCHNRRLTSVPTGIPTTTQVLYLYDNQITKLEPGVFDRLTKLTHLSLGYNQLKSVPRGAFDNLKSLTHIWLLNNPWDCQCTDILYLKNWIVQHASIVNPHTHGGVDNVKCSGTNTPVRAVTEASTSPSKC
B2: VLRB.HEL.2D (other)
chain: ACPSQCSCSGTTVDCSGKSLASVPTGIPTTTQVLYLYDNQITKLEPGVFDRLTQLTRLDLDNNQLTVLPAGVFDKLTQLTQLSLNDNQLKSIPRGAFDNLKSLTHIWLLNNPWDCACSDILYLSRWISQHPGLVFGYLNLDPDSARCSGTNTPVRAVTEASTSPSKCP
notes: also called VLRB.2D; wild-type VLRB.2D
B3: VLRB.2DMut.13 (other)
chain: B2 chain with Q40R, K101R, G132W, P142H, E159K
B4: VLRB.2DMut.12 (other)
chain: B2 chain with G132W, P142H
B5: VLRB.2DMut.15 (other)
chain: B2 chain with T29I, D86V, D141Y

Columns and labels:
[1] = molecular target: T1, hen egg lysozyme (hen, UniProt P00698 19-147); experiment: SPR, Table 1
T1 construct: Soluble monovalent antigen; Biotinylated for YSD titration; unlabelled analyte in SPR and titrant in ITC; also called HEL

[2] = molecular target: T1, hen egg lysozyme; experiment: SPR (BIAcore T100), biotinylated yeast-secreted VLR on NeutrAvidin, HEL as analyte (7.66-0.00299 nM)
[3] = molecular target: T1, hen egg lysozyme; experiment: SPR (BIAcore T100), biotinylated yeast-secreted VLR on NeutrAvidin, antigen as analyte
[4] = molecular target: T1, hen egg lysozyme; experiment: ITC at 25 C, VLR refolded from E. coli inclusion bodies, HEL injected
[5] = molecular target: T1, hen egg lysozyme; experiment: YSD antigen titration, flow cytometry, biotin-HEL and SAPE
[6] = molecular target: T1, hen egg lysozyme; experiment: SPR, steady-state analysis, VLRB.2D (117.0-10.9 µM) over immobilized HEL (FIG. 3A); SPR of FIG. 3A; clone found by phage display
[7] = molecular target: T1, hen egg lysozyme; experiment: SPR, steady-state analysis, 2DMut.12 (30.8-1.0 µM) over immobilized HEL (FIG. 3B)
[8] = molecular target: T1, hen egg lysozyme; experiment: SPR, VLR over immobilized HEL

T1 sequence (P00698 19-147): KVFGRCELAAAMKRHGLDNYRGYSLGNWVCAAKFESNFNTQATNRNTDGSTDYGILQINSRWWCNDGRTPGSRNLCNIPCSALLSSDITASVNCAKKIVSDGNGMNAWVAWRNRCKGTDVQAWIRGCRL

Row | Binder | fold improvement of affinity over VLRB.HEL.1 [1] [fold] | Kd [2] [nM] | Kd [3] [nM] | Kd [4] [nM] | Kd [5] [nM] | Kd [6] [nM] | Kd [7] [nM] | fold improvement of affinity over wild-type VLRB.HEL.2D [1] [fold] | fold improvement of affinity over wild-type VLRB.2D [8] [fold]
1 | B1 | 1300 | 0.119 |  |  |  |  |  |  | 
2 | B2 |  |  | 455 | 427 | 659 | 20000 |  |  | 
3 | B3 |  |  | 55.1 | 34 |  |  |  |  | 
4 | B4 |  |  | 4.3 | 28 | 6.9 |  | 1500 | 100 | 13
5 | B5 |  |  | 20.2 | 8 |  |  |  |  | 
